According to the DeepSol protein solubility set:

Test: soluble on expression in E. coli; label from the status in PepcDB or PDB records
With “MGSSHHHHHHGKTIFVIVPTNEEQVAFLEALAKQDELNFDWQNPPTEPGQPVVILIPSDMVEWFLEMLKAKGIPFTVYVEEGGSENLYFQGGGGGGMDLDAFLSKNNKKSSKKVAKKSADEAALGGFGLETVPRVSTAAAKPITVANTGGSDASAAAGTASPLPAPEKTVAAPVVAVNLNFAGTTRSAKTWDAVKASQDSKRQEEVQAAAARKAKEEAEAAERKAAAGGDDDEVQLPESSPKETKVAKFVARGHRNATGAIGGGEGGAAAAASGRFAPHTQGLSLENLPTLEETFGNARKPSQSTASQSQSQQQPMSLPSQEQNGESAPAATPQESSSTPTSATAVAGSNKYVPPSKSSSTMESSTTLPSSPMPTRGSAGGSSAAAYRPPSGSSGVYKPPSMGAYRPPNASAGEAYKPPAPSAPSSGAGAYKPPTPGGASAGAYRPPASTGEAYKPPSSGGAGVYKPPSAGNSNAGAFKPSTAAGFSADTYKPPVAGSGSSAGAYKPPSAGGSAGVYKPPSKREA” the “soluble on expression in E. coli” value was “soluble”.
For “MGSDKIHHHHHHMEISMRFTDINQERERILSCPVPGYFPRKDSFLELERLIGLREVKRTLAEVAAFTLIQNRRSELRLKSDPTALHMVFKGNPGTGKTTVARILGRVFNEIGILSKGHLLEVERADLVGEYIGHTAQKTREILKRAMGGIVFIDEAYSLAQGGERDFGKEAISTLVKAMEDYRDNLVVILAGYSQEIDRFLKSNPGLRSRFPIHIDFCDYNAEELFQIALQIYQEREYELTSRCRWKLKQQLNEFVKNRHSHSGNARYVRNLAEKSIRLQALRIVDKDAPVRRDLVTIEEADLPDPRSIQA”, the “soluble on expression in E. coli” value was “not soluble”.
With “MTDQRRNVYFFHKQDQETNEQARSLTQLAEEHGFTVVNQHSDANIIASIGGDGTFLQAVRKTNFRDDCLYVGITKKGKAHLYCDFHSDEREKMVDAMTFEQIEVRKYPLIEVTVDQASPFHCLNEVSIRSSIIKTFVMDVLIDDLHFETFRGDGMIISTPTGSTAYNKSVAGAVVDPLLPCMQVSELASLNNNTYRTLGSPFVLSSDRKLTLRVVQDGNEHPIIGLDNEALSTRNVKTIEIKLSNKKIKTVKLKDNSFWEKVKRTFLLEHHHHHH” the “soluble on expression in E. coli” value was “not soluble”.
In the case of “MTFLDRTPDIILTMNEEGVIVSQNETARRVFGDVGGKIYSEICKDDTCSVGDRYYSMVAIKGFRRTIVVGRDITERIRLEKELEDRERKFKALAELSPAGILVHHQGTILFVNEALCQIHGYTREELLNRKVWDLIHPDYHDLARAMMQKRLEGEKPVYELKTIRKDGSERWVLVAGGAIDWDGKKSVMAFAIDITDKKMIEQRLAEREELFRSIFNISPAGLYILVGGKFKLVNPAFERITGYSAEELVGMKSLEIVAEEDREFVRRKAIEMLKGRETEPYKYRVVRKDGKIRWVYENVASIAYEGERAALGSVIDITEIEEERKRLEELTSMLELINKTLRHDVLNALTSAMALLEMGIEESNKDYLNKALTSINRAVSIVRNMRAFEDAVKSGELRCIDVGELVSEVAKSFENVSVKGEGRALADEGLRSVVENIVNNAFIHSGTDRVEITVSEGKEWCEIRIADFGIGIPDEIKQRIFEEGFKYGKAAQTGLGLFIARKIVERYAGEIWVEDNEPKGSVFVIRLKKC”, the “soluble on expression in E. coli” value is reported as “not soluble”.
For “MGSDKIHHHHHHMRGPLRGKVSFPWGLRPLPMLVYHEFGRSMTRPVIGIIGNHHLINDQYATHAGGIMNSEAVAEVSGGLPLIVPSNPAFVDLDDLMATCAGFVFTGGRPNVHPEEYGEDYTDAHGTMDRDRDALTLPLIRACVERGQPILGLCRGFQEVNVAMGGSLYPEIRDLPGRMNHRMPPDGTIEEKFELRHTVTFTEGGPFHRLMGAQQVRTNTLHGQGIKQAGARVIIDGHAEDGTPEAIYIADAPGFTLSVQWHPEYRAAEDPVSRPLFAAFGEAARAWSIGKRPVKAGEVA”, the “soluble on expression in E. coli” value was “not soluble”.
For “MGSDKIHHHHHHMSPRLGDSAEMFVPQEQSGLNEAAPAAPRRPYRLSRRPEERVHVLGGTMDLVRPEEVFHFVTGKLEARQNAIVANHNLHSLYLIGKDHQIGQFYKAADLIEVDSVPLIFWARLVGRASRRFHRCTYLDWRDAFWALASEKNWKVFFVGGAPGVGEKAVERIRQDWPNARIETHHGYFDATQGSAENTAVVAKIRDYAPDIVLVGMGMPRQEIWTLENHQAYGPAATFTVGGAFDYEAGVQKAAPRWMGPLGMEWLFRLMSDPQRLFFRYCIEPWSLIGPACGDVVRALSRRSTTGESRAAENARWEQIRARNEAAR”, the “soluble on expression in E. coli” value was “not soluble”.
With “MGHHHHHHSHMNNQKVVAVLLQECRALLPSELRTLIQEAKEMKWPFVPEKWQYKQAVGPEDKTNLKDVIGAGLQQLLASLRASILARDCAAAAAIVFLVDRFLYGLDVSGKLLQVAKGLHKLQPATPIAPQVVIRQARISVNSGSHPAKHSM” the “soluble on expression in E. coli” value was “not soluble”.
With “MRGSHHHHHHTDPNSPLDEENLTQENQDRGTHVDLGLASANVDFAFSLYKQLVLKAPDKNVIFSPLSISTALAFLSLGAHNTTLTEILKGLKFNLTETSEAEIHQSFQHLLRTLNQSSDELQLSMGNAMFVKEQLSLLDRFTEDAKRLYGSEAFATDFQDSAAAKKLINDYVKNGTRGKITDLIKDLDSQTMMVLVNYIFFKAKWEMPFDPQDTHQSRFYLSKKKWVMVPMMSLHHLTIPYFRDEELSCTVVELKYTGNASALFILPDQDKMEEVEAMLLPETLKRWRDSLEFREIGELYLPKFSISRDYNLNDILLQLGIEEAFTSKADLSGITGARNLAVSQVVHKAVLDVFEEGTEASGTTAVKITLLSALVETRTITRFNRPFLMIIVPTDTQNIFFMSKVTNPKQA” the “soluble on expression in E. coli” value was “soluble”.
In the case of “MAGHSIPHFQNDGGHSVIEIGVKEFMCTGASVPFDHPHIFIDMGDDNEKVCSYCSTLYRYNPSLKAEQTNPPGCVFHVKAA”, the “soluble on expression in E. coli” value is reported as “not soluble”.
For “MWKRIALFLVVLLLAACGKTIPDAKNWPVEDFTFVDQTGKPFGLRDLKGKVWVADFIFTNCETVCPPMTAHMAKLKQMAKKEGLDVEFVSFSVDPEVDTPEKLAAYAKQFTDDLSNWHLLTGYSPAEISELAQKSFKTIVQKPANDDQVVHGTSFYLVGPDGKVVQTYSGVQDVPYETILEHIKIVQSSQ”, the “soluble on expression in E. coli” value was “not soluble”.
In the case of “VFHPVECSYCHSESMMGFRYRCQQCHNYQLCQDCFWRGHAGGSHSNQHQMKEYTSW”, the “soluble on expression in E. coli” value is reported as “soluble”.
In the case of “MISEGCEQCAKGGKMVLFVYGYCDQRDCFYCPLGENRKNVTQMYANERPIEDDADVIEEAKRMSALGTSITGGEPQEVLDRTCHYLELLKDEFGEDHHTHLYTGIPGGRENMRRLSEAGLDEIRFHPPLEQWGDLHGTEWEDILYIAREEGLTPAFEIPGIRAEEEFLEFLDEGAADFCNINEFEMSDGNYRRMQEEGFELKEDHMSAVEGSHDILEKMGDHEKVYFCTSVFKDAAQHRSRLKRMARNIRRPFDDVTDDGTLVYGKAWTSEARLETLGVPEEYYTVKSEHVELAWWLLEEMVEEGDVEKGEIVEQYPTYDGTVVERTPLSNGADAGRATADD”, the “soluble on expression in E. coli” value is reported as “not soluble”.
With “MGSDKIHHHHHHMSARIPTLDITRFDSDREAFVAELGAAYRQWGFAGIRNHGIAQSDIDAAYEVFKAFFALPDEVKRSYHVPGSGGARGYTAFGVETAKDSKHFDLKEFWHIGREIPDDSPYRAVMAPNLWPTEVPGFRERGYHLYQQLDQLGSRVLSALALHIGLPQDYFADKTDHGNSILRPIHYPPITSDDIPNVRAGAHGDINFITLLVGASAAGLEVRSNEGEWVPFTADADTIVVNIGDMLQRLTNHVYPSTIHRVVNPPGEEARKPRYSVPFFLHPNPDFLIDVLPSCISADNPSRYPEPITAHGFLEERLREIKLK” the “soluble on expression in E. coli” value was “not soluble”.
With “MSLKSHKLLYQLKNKLTWLPILILAACQNNIIYHSYAPVPLDGWDKSDTLVYTLPNSIPAGNYEAEIGIRYQESYPYRDIWLEVSHNTKDTLTYVTDTLQLFLVDEAGNKTGNGLCGLYQCDLPYKASIPIRTEGSARTFRIVHIMTDNPLTGISDIGIRLRKPENEGHHHHHH” the “soluble on expression in E. coli” value was “not soluble”.
In the case of “MSMPRYYEYRHVVGFEETNLVGNVYYVNYLRWQGRCREMFLYEHAPEILDELRADLKLFTLKAECEFFAELAPFDRLAVRMRLVELTQTQMELGFDYLRLGGDDLLVARGRQRIACMRGPNGRTEPVRVPAGLVRAFAPFRSATVGQ”, the “soluble on expression in E. coli” value is reported as “soluble”.
For “SASDFEERVVTIPLRDARAEPNHKRADKAMILIREHLAKHFSVDEDAVRLDPSINEAAWARGRANTPSKIRVRAARFEEEGEAIVEAETAE”, the “soluble on expression in E. coli” value was “soluble”.
For “MTVNVVVTDMDGTFLDDAKQYDRVRFMAQYQELKKRNIEFVVASGNQYYQLISFFPELKDEISFVAENGALVYEHGKQLFHGELTRHESRIVIGELLKDKQLNFVACGLKSAYVSKNAPETFVALMAKHYHRLQPVNDYHDIDDILFKFSLNLPDEQIPLVIDKLHVSLDGIMKPVTSGFGFIDLIIPGLHKANGISRLLKRWNRSPQNVVAIGDSGNDAEMLKMAHYSFAMGNAADNIKALSRYHTDDNNHQGALNVIQAVLDGTDPF”, the “soluble on expression in E. coli” value was “not soluble”.
For “MGSDKIHHHHHHMMNNLKRILKNPRLILIFILSRYCHWIDDKTYLCIMYFIYFGKLLHLNSPRTFNEKLQWLKLYDRHPEYTQMVDKATVKEYVASIIGEKYIIPTLGVWENFDDIDFENIPSSFVLKCTHDSGGVVICENKNLFDVEKARSKLLKSMKKNYYYVGREYPYKDIKPRIIAEKYMVDESHIELKDYKIHLFHGIPNFIQVDFDRFTSHHRNLYTIDWKPLGKAIKYPAVYEREIDKPIVLDEMLELAMKLAFNIPYVRADFYCIGNKVYFGELTFYHGSGFETFSPKSFDEELGALIKLS”, the “soluble on expression in E. coli” value was “not soluble”.
In the case of “MGSSHHHHHHDYDIPTTENLYFQGHMKIGIMSDTHDHLPNIRKAIEIFNDENVETVIHCGDFVSLFVIKEFENLNANIIATYGNNDGERCKLKEWLKDINEENIIDDFISVEIDDLKFFITHGHHQSVLEMAIKSGLYDVVIYGHTHERVFEEVDDVLVINPGECCGYLTGIPTIGILDTEKKEYREIVL”, the “soluble on expression in E. coli” value is reported as “soluble”.
With “MSLRITRIRLYKTDLPYVDGSYGWGAGNAITVARASVVVIDTDAGLQGCGEFTPCGENYMIAHSEGVDAFARLAAPQLLGQDPRQVARMERLMDHLVQGHGYAKAPFDAAFWDILGQATGQPVWMLLGGKLCDGAPMYRVAPQRSEAETRAELARHRAAGYRQFQIKVGADWQSDIDRIRACLPLLEPGEKAMADANQGWRVDNAIRLARATRDLDYILEQPCRSYEECQQVRRVADQPMKLDECVTGLHMAQRIVADRGAEICCLKISNLGGLSKARRTRDFLIDNRMPVVAEDSWGGEIASAAVAHFAASTPEEFLINSTDLMNYNTRSTGLGGPTVHQGRLYASDTPGLGVTPDFNSLGAPVADWALPEGHHHHHH” the “soluble on expression in E. coli” value was “soluble”.
With “MLRDKSVNLDDGDPFTIALFGVDSNAERNANGGGQRSDTIMVLSVNPEKKTTEIVSIPRDTQADIVGKGTTEKINHAYAYGGPDMAVKSLEKLLNVPIDHYATIDMDGMQDMIDTVGGITVTSNATFSYDGYQFTEGERSKMDGKEAMAFIRSRKEDGAGGDFGRQERQQLVIQGLANKLTSVSSITHFNSLMNHVEDNVKTDLSVGELNKVRSNYKDANDNVNRHQLEGQGGIQDDGLYYFVPSENSLNEIETNVKDNLGILEHHHHHH” the “soluble on expression in E. coli” value was “soluble”.
For “MGSDKIHHHHHHVSEAIVFTSGKGGVGKTTVISNIGVELSQLDKKVIMLDTDMGLRNLDLVMGIEDKVNYNILDILNRSCRIRQAIIRNKKYPNLYVIPAAPSMDTLCSYEARFKILIEELKASFDYCLIDSPAGIDSGFWFSVSPADRAIVVTTPHVSAIHDARRCISLLDSAHLDDISVIVNAYDKHMVRRHQMISDNDITALLSTRIIGTIPYDKSVIICQNRGIPVREAKSRLSPVFARISGQIIHSSDDMRGAAV”, the “soluble on expression in E. coli” value was “not soluble”.
